# According to US20240132615A1 (ICHNOS SCIENCES, published 2024):
# Target: T1, human CD3 on cells (HPB-ALL cells, primary human T cells) (human, UniProt P07766 23-207)
# T1 construct: whole, on cells; only the epsilon chain is written
# Test: flow cytometry, human CD4+ T cells
# Description: On the day prior to the assay, cells were thawed in pre-warmed complete RPMI medium (RPMI supplemented with 10% heat inactivated fetal calf serum, 1% Glutamine, 1% Non-essential Amino Acids, 1% Sodium Pyruvate, and 1% Penicillin/Streptomycin) and rested overnight at 1×10⁶ cells/ml. On the day of the assay, cells were plated at 1×10⁵ cells/well in a 96-well round-bottom plate. The plate was centrifuged at 350 g for 3 min at 4° C. and the cells were resuspended in 100 μl of cold FACS buffer containing serial dilutions of anti-CD3 IgG1-LALA antibodies starting from 800 nM and diluted by 3 or 10-fold. […] Cells were then washed twice and resuspended in 100 μl of FACS buffer containing SYTOX Green dead cell stain (ThermoFisher Scientific, catalog NO: S34860) diluted 1/2000. Samples were acquired on a CytoFlex instruments (Beckman Coulter). Cells were gated based on size on FSC vs SSC and debris, doublets and dead cells were excluded. Finally, CD4⁺ T cell population was analyzed for PE-geometric mean (geomean) fluorescence intensity using FlowJo software.
# T1 sequence (P07766 23-207): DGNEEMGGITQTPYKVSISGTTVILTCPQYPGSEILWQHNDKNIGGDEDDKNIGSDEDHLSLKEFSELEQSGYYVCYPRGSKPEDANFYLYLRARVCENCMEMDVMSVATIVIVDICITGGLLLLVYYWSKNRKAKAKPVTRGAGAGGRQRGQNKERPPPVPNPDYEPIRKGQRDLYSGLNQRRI
row,Binder,MFI at 800 nM [MFI]
1,"Anti-CD3-C1-UCP01-B9 IgG1LALA (antibody, V domains shown, IgG1 LALA) VH: QVQLVQSGAEVKKPGSSVKVSCKASGGKFSRYAISWVRQAPGQGLEWMGGINAPVVRSPEYAQKFQGRVTITADESTSTAYMELSSLRSEDTAVYYCARYGYSLYMDIWGQGTLVTVSS VL: not shown",108000
2,"Anti-CD3-C1-UCP01-E6 IgG1LALA (antibody, V domains shown, IgG1 LALA) VH: QVQLVQSGAEVKKPGSSVKVSCKASGGKFSRYAISWVRQAPGQGLEWMGGITPPHVGIADYAQKFQGRVTITADESTSTAYMELSSLRSEDTAVYYCARYGYSLYMDIWGQGTLVTVSS VL: not shown",231000
3,"Anti-CD3-C1-UCP01-E10 IgG1LALA (antibody, V domains shown, IgG1 LALA; also called anti-CD3-C1-E10) VH: QVQLVQSGAEVKKPGSSVKVSCKASGGKFSRYAISWVRQAPGQGLEWMGGISPFEGTPAYAQKFQGRVTITADESTSTAYMELSSLRSEDTAVYYCARYGYSLYMDIWGQGTLVTVSS VL: not shown",100000
4,"Anti-CD3-C1-UCP01-E11 IgG1LALA (antibody, V domains shown, IgG1 LALA) VH: QVQLVQSGAEVKKPGSSVKVSCKASGGKFSRYAISWVRQAPGQGLEWMGGINPFKGDAEYAQKFQGRVTITADESTSTAYMELSSLRSEDTAVYYCARYGYSLYMDIWGQGTLVTVSS VL: not shown",91800
5,"Anti-CD3-C1-UCP01-E12 IgG1LALA (antibody, V domains shown, IgG1 LALA; also called anti-CD3-C1-E12) VH: QVQLVQSGAEVKKPGSSVKVSCKASGGKFSRYAISWVRQAPGQGLEWMGGINPLVGHAEYAQKFQGRVTITADESTSTAYMELSSLRSEDTAVYYCARYGYSLYMDIWGQGTLVTVSS VL: not shown",149000

# Further lines, results first:
row,MFI at 800 nM [MFI],Binder
1,150000,"Anti-CD3-C1-UCP01-F10 IgG1LALA (antibody, V domains shown, IgG1 LALA; also called anti-CD3-C1-F10) VH: QVQLVQSGAEVKKPGSSVKVSCKASGGKFSRYAISWVRQAPGQGLEWMGGINPHIRFPEYAQKFQGRVTITADESTSTAYMELSSLRSEDTAVYYCARYGYSLYMDIWGQGTLVTVSS VL: not shown"
2,151000,"Anti-CD3-C1-UCP02-E1 IgG1LALA (antibody, V domains shown, IgG1 LALA) VH: QVQLVQSGAEVKKPGSSVKVSCKASGGKFSRYAISWVRQAPGQGLEWMGGISPFKGYAEYAQKFQGRVTITADESTSTAYMELSSLRSEDTAVYYCARYGYSLYMDIWGQGTLVTVSS VL: not shown"
3,121000,"Anti-CD3-C1-UCP01-G12 IgG1LALA (antibody, V domains shown, IgG1 LALA) VH: QVQLVQSGAKVKKPGSSVKVSCKASGGKFSRYAISWVRQAPGQGLEWMGGISPHIGHPEYAQKFQGRVTITADESTSTAYMELSSLRSEDTAVYYCARYGYSLYMDIWGQGTLVTVSS VL: not shown"
4,151000,"Anti-CD3-C1-UCP01-H10 IgG1LALA (antibody, V domains shown, IgG1 LALA; also called anti-CD3-C1-H10) VH: QVQLVQSGAEVKKPGSSVKVSCKASGGKFSRYAISWVRQAPGQGLEWMGGISPLVGYPQYAQKFQGRVTITADESTSTAYMELSSLRSEDTAVYYCARYGYSLYMDIWGQGTLVTVSS VL: not shown"
5,81300,"Anti-CD3-C1-UCP01-F1 IgG1LALA (antibody, V domains shown, IgG1 LALA) VH: QVQLVQSGAEVKKPGSSVKVSCKASGGKFSRYAISWVRQAPGQGLEWMGGINPRLGQAEYAQKFQGRVTITADESTSTAYMELSSLRSEDTAVYYCARYGYSLYMDIWGQGTLVTVSS VL: not shown"
6,108000,"Anti-CD3-C1-UCP01-F12 IgG1LALA (antibody, V domains shown, IgG1 LALA) VH: QVQLVQSGAEVKKPGSSVKVSCKASGGKFSRYAISWVRQAPGQGLEWMGGISPFRGHAEYAQKFQGRVTITADESTSTAYMELSSLRSEDTAVYYCARYGYSLYMDIWGQGTLVTVSS VL: not shown"
